Assay [1] concerns the target VipB on the GAL4 DNA-binding domain (pGBKT7) (V. cholerae). As to the kind of experiment: two-hybrid.
Assay [2] addresses VipB fused to the zinc finger DNA-binding domain of murine Zif268. Conditions: parent: est. 680; read off a plot.

Regarding “VipA D104A fused to the GAL4 activation domain (pGADT7) (natural protein)”, the relative β-gal activity in assay [1] was 92.7%. Consider “VipA D104A/V106A fused to the GAL4 activation domain (pGADT7) (natural protein)”, for which, in assay [1], the relative β-gal activity is 64.1%. As to “VipA D104A/V106A/V110A fused to the GAL4 activation domain (pGADT7) (natural protein)”, the relative β-gal activity in assay [1] amounted to 48.8%. On the same count and under the same terms, under “VipA V106A fused to the GAL4 activation domain (pGADT7) (natural protein)” stands 92.4%. In turn, “VipA V110A fused to the GAL4 activation domain (pGADT7) (natural protein)” came in with a relative β-gal activity in assay [1] of 74.6%. In assay [1], “VipA fused to the GAL4 activation domain (pGADT7) (natural protein)” showed a relative β-gal activity of 100%. As to “VipA fused to the ω subunit of E. coli RNAP D104A”, in assay [2], the response is 460 Miller units. On to “VipA fused to the ω subunit of E. coli RNAP D104A; V106A”, for which the response in assay [2] is 230 Miller units. Take “VipA fused to the ω subunit of E. coli RNAP D104A; V106A; V110A”: the response in assay [2] amounted to 120 Miller units.

Turning to “VipA fused to the ω subunit of E. coli RNAP D104A; V106A; V110A; L113A”, the response in assay [2] came to 90 Miller units. On the same count and under the same terms, with “VipA fused to the ω subunit of E. coli RNAP E112A” the figure was 720 Miller units; with “VipA fused to the ω subunit of E. coli RNAP L113A”, 490 Miller units; with “VipA fused to the ω subunit of E. coli RNAP P111A”, 590 Miller units.

For “VipA fused to the ω subunit of E. coli RNAP Q109A”, the response in assay [2] amounted to 630 Miller units. Still for that read-out and setting: with “VipA fused to the ω subunit of E. coli RNAP Q109A; V110I” the figure was 710 Miller units.

“VipA fused to the ω subunit of E. coli RNAP S108A”: the response in assay [2] was 720 Miller units.

“VipA fused to the ω subunit of E. coli RNAP V106A”: the response in assay [2] was 460 Miller units. As for “VipA fused to the ω subunit of E. coli RNAP V110A”, the response in assay [2] was determined as 430 Miller units. Turning to “VipA fused to the ω subunit of E. coli RNAP V110A; L113A”, in assay [2], the response came out at 120 Miller units.

(Values after article PMC3656785.)
